Results on one molecule are retold here after patent publication US20220153864A1.

In assay [1] the target is 32 different targets including GPC3, GPC5, and other TNF receptor proteins. Kind of assay: off-target ELISA on 32 coated targets, binder at 10 nM, signals normalized to control antibody SEQ ID NOs: 106 and 107 and summed. For orientation: ELISA stands for enzyme-linked immunosorbent assay.
The target is the same in assay [2]. Kind of assay: off-target ELISA on 32 coated targets, sum of the ratios at 100 nM and 10 nM.
For assay [3] the target is unchanged. Kind of assay: off-target ELISA on 32 coated targets, binder at 100 nM, signals normalized to control antibody SEQ ID NOs: 106 and 107 and summed.

B1: GPC3 antibody as included in the fusion protein (SEQ ID NOs: 81 and 82) (antibody, human IgG4 S228P, kappa, F234A L235A, V domains shown)
VH: QVQLVQSGAEVKKPGASVKVSCKASGYTFTDYEMHWVRQAPGQGLEWMGALDPKTGDTAYSQKFKGRVTLTADKSTSTAYMELSSLTSEDTAVYYCTRFYSYTYWGQGTLVTLVS
VL: DVVMTQSPLSLPVTPGEPASISCRSSQSLVHSNRNTYLHWYLQKPGQSPQLLIYKVSNRFSGVPDRFSGSGSGTDFTLKISRVEAEDVGVYYCSQNTHVPPTFGQGTKLEIKR
For B1, the cumulative binding ratio in assay [1] stood at 48; in assay [3], 81. In assay [2], the sum of cumulative binding ratios was 129.
